Measured values reported in patent US20080182249A1, “Expression systems for mammalian and mycobacterial desaturases” (priority 2006, published 2008).
“And” between values parts separate entries of the source, which are not always exact repeats. Identical values can stand only once.

How the values were obtained:
mSCD1 = biological target: T1, mSCD1 (Mus musculus, UniProt P13516); assay: Conversion of [14C]-18:0-CoA to [14C]-18:1-CoA by reconstituted complexes of recombinant mSCD1 with cyt b5 and cyt b5 reductase; assay type: biochemical
T1 construct: 6xHis (from pYES-DEST52) (C); made in house; host or cells: mSCD1: Saccharomyces cerevisiae (OLE1-deficient strain L8-14C), used as microsomes; cyt b5 and cyt b5 reductase: Escherichia coli
T1 sequence (P13516 1-355): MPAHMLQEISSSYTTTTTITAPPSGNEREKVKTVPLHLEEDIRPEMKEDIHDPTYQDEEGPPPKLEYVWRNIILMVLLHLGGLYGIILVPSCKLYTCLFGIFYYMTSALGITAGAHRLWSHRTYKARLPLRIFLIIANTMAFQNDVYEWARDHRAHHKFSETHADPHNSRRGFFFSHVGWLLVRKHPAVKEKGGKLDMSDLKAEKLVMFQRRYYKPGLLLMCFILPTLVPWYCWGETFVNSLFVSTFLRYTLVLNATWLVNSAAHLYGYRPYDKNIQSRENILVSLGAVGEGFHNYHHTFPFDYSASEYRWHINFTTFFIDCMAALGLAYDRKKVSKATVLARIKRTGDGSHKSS

transgenic L8-14C = assay: Fatty acid profile of transgenic L8-14C expressing human SCD constructs; assay type: cell-based, Saccharomyces cerevisiae; settings: for 16:0 / 16:1 / 18:0 / 18:1: percentage of total C16 and C18 fatty acids detected
[1] = tested on: OLE1 deficient yeast strain L8-14C; assay type: cell-based, Saccharomyces cerevisiae; settings: galactose minimal medium without unsaturated fatty acids, plus grades not defined

B1: mSCD1 only: recombinant mSCD1 prepared as yeast microsomes, no exogenous cyt b5 or reductase (protein, UniProt P13516 1-355, looked up)
Acyl-CoA desaturase 1: T1 sequence (P13516 1-355)
modifications: yeast microsomes
notes: recombinant mSCD1 prepared as yeast microsomes, no exogenous cyt b5 or reductase
% conversion (mSCD1; 18:0-CoA to 18:1-CoA, single trial of duplicate): 5.40% and 5.55%
Correction by subtraction of background (mSCD1; average conversion minus background): 3.47%
average conversion (mSCD1; mean of duplicate trials): 5.48%
cpm 18:1-CoA (mSCD1; single trial of duplicate): 1626 cpm and 1743 cpm
total cpm (mSCD1; single trial of duplicate): 30,094 cpm and 31,416 cpm
cpm 18:0-CoA (mSCD1; single trial of duplicate, mSCD1 yeast microsomes, cyt b5 and cyt b5 reductase from E. coli): 28,468 cpm and 29,673 cpm

B2: hSCD1-wt: human SCD1 wild-type construct expressed in yeast L8-14C (protein, UniProt O00767 1-359, looked up)
Stearoyl-CoA desaturase: MPAHLLQDDISSSYTTTTTITAPPSRVLQNGGDKLETMPLYLEDDIRPDIKDDIYDPTYKDKEGPSPKVEYVWRNIILMSLLHLGALYGITLIPTCKFYTWLWGVFYYFVSALGITAGAHRLWSHRSYKARLPLRLFLIIANTMAFQNDVYEWARDHRAHHKFSETHADPHNSRRGFFFSHVGWLLVRKHPAVKEKGSTLDLSDLEAEKLVMFQRRYYKPGLLMMCFILPTLVPWYFWGETFQNSVFVATFLRYAVVLNATWLVNSAAHLFGYRPYDKNISPRENILVSLGAVGEGFHNYHHSFPYDYSASEYRWHINFTTFFIDCMAALGLAYDRKKVSKAAILARIKRTGDGNYKSG
Ratio 18:1/16:1 (transgenic L8-14C): 0.63
16:0 (transgenic L8-14C): 61.87 percentage
16:1 (transgenic L8-14C): 23.22 percentage
18:0 (transgenic L8-14C): 9.40 percentage
18:1 (transgenic L8-14C): 14.65 percentage

B3: mSCD4: mouse stearoyl-CoA desaturase isoform 4, cloned from heart, expressed in yeast (protein, UniProt Q6T707 1-353, looked up)
Stearoyl-CoA desaturase 4: MTAHLPQEISSRCSTTNIMEPHSRRQQDGEEKMPLQAEDIRPEIKDDLYDPSYQDEEGPPPKLEYVWRNIIFMALLHVGALYGITLVPSCKVYTWLLGVFYNVVAGLGITAGAHRLWSHRTYKARLPLRIFLIMANTMAFQNDVYEWARDHRAHHKFSETHADPHNSRRGFFFSHVGWLLVRKHPAVKEKGKNLDMSDLKAEKLVMFQRRYYKLAVTLMFIILPTLVPWYLWGETFQHSLCVSNFLRYAVLLNFTWLVNSAAHLYGYRPYDRGIGARENPFVSMASLGEGFHNYHHTFPYDYSVSEYRWHINFTTFFIDCMAALGLAYDRKKVSKAVVLARIKRTGDGSHKSS
In vivo activity [1]: Not active

B4: hSCD5-wt: human SCD5 wild-type construct expressed in yeast L8-14C (protein, UniProt Q86SK9 1-330, looked up)
Stearoyl-CoA desaturase 5: MPGPATDAGKIPFCDAKEEIRAGLESSEGGGGPERPGARGQRQNIVWRNVVLMSLLHLGAVYSLVLIPKAKPLTLLWAYFCFLLAALGVTAGAHRLWSHRSYRAKLPLRIFLAVANSMAFQNDIFEWSRDHRAHHKYSETDADPHNARRGFFFSHIGWLFVRKHRDVIEKGRKLDVTDLLADPVVRIQRKYYKISVVLMCFVVPTLVPWYIWGESLWNSYFLASILRYTISLNISWLVNSAAHMYGNRPYDKHISPRQNPLVALGAIGEGFHNYHHTFPFDYSASEFGLNFNPTTWFIDFMCWLGLATDRKRATKPMIEARKARTGDSSA
Ratio 18:1/16:1 (transgenic L8-14C): 3.39
16:0 (transgenic L8-14C): 45.032 percentage
16:1 (transgenic L8-14C): 8.90 percentage
18:0 (transgenic L8-14C): 7.73 percentage
18:1 (transgenic L8-14C): 30.20 percentage

B5: hSCD5-6xH: human SCD5 construct with 6xHis tag expressed in yeast L8-14C (protein, UniProt Q86SK9 1-330, looked up)
Stearoyl-CoA desaturase 5: B4 Stearoyl-CoA desaturase 5
modifications: C-terminal 6xHis tag
notes: human SCD5 construct with 6xHis tag expressed in yeast L8-14C
Ratio 18:1/16:1 (transgenic L8-14C): 3.73
16:0 (transgenic L8-14C): 56.64 percentage
16:1 (transgenic L8-14C): 6.70 percentage
18:0 (transgenic L8-14C): 10.79 percentage
18:1 (transgenic L8-14C): 25.70 percentage
